Residue numbers refer to the chain shown, from its start. Names and notes keep the numbering of the source. Where two headings read alike, the source gives them in different places. Values belong to the binder of their own block, whether it stands above or below them.
Key:
[1] = molecular target: T1, murine CD200R1 (mouse, UniProt Q9ES57); test: SPR, 25C
T1 chain: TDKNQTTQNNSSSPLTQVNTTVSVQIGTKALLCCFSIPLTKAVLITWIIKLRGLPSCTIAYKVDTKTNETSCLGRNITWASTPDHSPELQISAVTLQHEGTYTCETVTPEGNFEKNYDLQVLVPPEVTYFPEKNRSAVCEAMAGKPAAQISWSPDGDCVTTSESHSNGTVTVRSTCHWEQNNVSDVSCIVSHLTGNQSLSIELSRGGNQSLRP

[2] = molecular target: T2, human CD200R1L (human, UniProt Q6Q8B3); test: SPR, 25C
T2 chain: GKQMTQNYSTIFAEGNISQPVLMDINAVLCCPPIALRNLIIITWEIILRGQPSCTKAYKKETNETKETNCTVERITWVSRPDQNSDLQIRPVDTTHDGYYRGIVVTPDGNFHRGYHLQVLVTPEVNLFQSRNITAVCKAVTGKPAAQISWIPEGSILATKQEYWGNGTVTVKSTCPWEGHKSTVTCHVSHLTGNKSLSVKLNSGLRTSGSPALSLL

[3] = molecular target: T3, human CD200R (human, UniProt Q8TD46); test: SPR, 25C
T3 chain: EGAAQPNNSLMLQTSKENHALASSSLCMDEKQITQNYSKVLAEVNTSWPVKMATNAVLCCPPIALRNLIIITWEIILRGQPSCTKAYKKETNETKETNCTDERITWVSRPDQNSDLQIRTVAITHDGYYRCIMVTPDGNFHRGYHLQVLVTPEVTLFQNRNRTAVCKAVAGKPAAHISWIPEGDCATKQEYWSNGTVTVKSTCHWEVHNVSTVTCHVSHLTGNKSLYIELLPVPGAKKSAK

[4] = molecular target: T3, human CD200R; test: SPR, 25C
[5] = molecular target: T1, murine CD200R1; test: SPR

B1: DS-20 (antibody)
chain: QVQVVTQDEREQLYTPASLKCSLQNAQEALIVTWQKKKAVSPENMVTFSENHGVVIQPAYKDKINITQLGLQNSTITFWNITLEDEGCYMCLFNTFGFGKISGTACLTVYVQPIVSLHYKFSEDHLNITCSATARPAPMVFWKVPRSGIENSTVTLSHPNGTTSVTSILHIKDPKNQVGKEVICQVLHLGTVTDFKQTVNKG
modifications: wild-type CD200 ectodomain fused to human IgG1 Fc (dimer); UniProt numbering
- binding result [1]: no binding
- binding result [2]: no binding
- Kd [3]: 111 nM

B3: DS-227 (protein)
chain: QVEVVTQDERKALHTTASLRCSLKTSQEPLIVTWQKKKAVSPENMVTYSKTYGVVIQPAYKDRINVTELGLWNSSITFWNTTLEDEGCYMCLFNIFGSQKVSGTACLTLYVQPIVHLHYNYFEDHLNITCSATARPAPAISWKGTGTGIENSTESHFHSNGTTSVTSILRVKDPKTQVGKEVICQVLYLGNVIDYKQSLDKG
- Kd [5]: 43.3 nM

B4: DS-198 (protein)
chain: B3 chain with Y52H, I95T
modifications: wild-type murine CD200 fused to murine IgG2a Fc
- Kd [5]: 584 nM

Further lines, with some results ahead:

- binding result [1]: no binding
- binding result [2]: no binding
B2: DS-155 (antibody)
chain: B1 chain
modifications: wild-type CD200 ectodomain fused to human IgG4 S228P Fc (dimer); UniProt numbering
- Kd [3]: 179 nM
- Kd [4]: 179 nM

- binding result [1]: no binding
- binding result [2]: no binding
B5: DS-118 (antibody)
chain: QVQVVTQDEREQLYTPASLKCSLQNAQEALIVTWQKKKAVSPENMVTFSENHGVVIQPAYKDKINITQLGLQNSTITFWNITLEDEGCYMCLFNTFGFGYYSGTACLTVYVQPIVSLHYKFSEDHLNITCSATARPAPMVFWKVPRSGIENSTVTLSHPNGTTSVTSILHIKDPKNQVGKEVICQVLHLGTVTDFKQTVNKGPPCPPCPAPEFLGGPSVFLFPPKPKDTLMISRTPEVTCVVVDVSQEDPEVQFNWYVDGVEVHNAKTKPREEQFNSTYRVVSVLTVLHQDWLNGKEYKCKVSNKGLPSSIEKTISKAKGQPREPQVYTLPPSQEEMTKNQVSLTCLVKGFYPSDIAVEWESNGQPENNYKTTPPVLDSDGSFFLYSRLTVDKSRWQEGNVFSCSVMHEALHNHYTQKSLSLSLGK
- Kd [3]: 1.3 nM
- Kd [4]: 1.3 nM
